Results: publication PMC2896262 (Structure (London, England : 1993), 2009)

T1: soNrtR (Shewanella oneidensis, UniProt Q8EFJ3 1-237)
T1 sequence: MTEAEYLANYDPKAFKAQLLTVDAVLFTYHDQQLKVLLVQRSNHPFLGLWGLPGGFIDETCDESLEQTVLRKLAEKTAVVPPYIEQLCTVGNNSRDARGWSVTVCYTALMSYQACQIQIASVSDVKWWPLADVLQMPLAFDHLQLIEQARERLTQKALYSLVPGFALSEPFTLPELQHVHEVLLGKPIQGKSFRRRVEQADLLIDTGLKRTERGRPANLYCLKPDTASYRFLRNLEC


Tests used:
[1] = target: the molecule itself; experiment: crystal structure
[2] = target: T1, soNrtR; experiment: X-ray crystal structure

| Binder | stoichiometry N [1] | binding result [2] |
| --- | --- | --- |
| N-terminal domain of soNrtR (residues 1-159) (domain or fragment, Shewanella oneidensis, UniProt Q8EFJ3 1-159, looked up) MTEAEYLANYDPKAFKAQLLTVDAVLFTYHDQQLKVLLVQRSNHPFLGLWGLPGGFIDETCDESLEQTVLRKLAEKTAVVPPYIEQLCTVGNNSRDARGWSVTVCYTALMSYQACQIQIASVSDVKWWPLADVLQMPLAFDHLQLIEQARERLTQKALY | 2 |  |
| 28-nt NrtR-box DNA (dsDNA) DNA 1: CGTAATAGTGTCTTAAAGACACTATTAC DNA 2: CGTAATAGTGTCTTTAAGACACTATTAC |  | binds |
